Reference: patent publication US20250381289A1 (Genmab, published 2025)
Changes are numbered by the printed parent chain.

Legend:
[1] = biological target: T1, cMET on EGFR and cMET co-expressed tumor cell lines (UniProt P08581 25-1390, limits assumed); experiment: flow cytometry, MKN-45 cells
T1 construct: whole, on cells

[2] = biological target: T1, cMET on EGFR and cMET co-expressed …; experiment: flow cytometry, EBC-1 cells (co-express EGFR and cMET; both arms contribute)
[3] = biological target: T2, EGFR on EGFR and cMET co-expressed tumor cell lines (UniProt P00533 25-1210, limits assumed); experiment: as above
T2 construct: whole, on cells

[4] = biological target: T1, cMET on EGFR and cMET co-expressed …; experiment: flow cytometry, SNU-5 cells (co-express EGFR and cMET; both arms contribute)
[5] = biological target: T2, EGFR on EGFR and cMET co-expressed …; experiment: as above
[6] = biological target: T1, cMET on EGFR and cMET co-expressed …; experiment: flow cytometry on CAL-27 cells (co-express EGFR and cMET), PE anti-human Fc; signal of the whole bispecific, not resolved by arm
[7] = biological target: T2, EGFR on EGFR and cMET co-expressed …; experiment: as above
[8] = biological target: T1, cMET on EGFR and cMET co-expressed …; experiment: flow cytometry on SNU-5 cells (co-express EGFR and cMET), PE anti-human Fc; signal of the whole bispecific, not resolved by arm
Experimental: (§1) EBC-1, ACHN and CAL-27 were cultured with DMEM medium (Gibco, Cat #C11995500BT) containing 10% FBS. […] Each antibody was incubated with different cell lines (1×10⁵ cells per well) for 30 mins in 0.2 mL FACS buffer (1×PBS with 0.1% BSA) at 4° C. After wash, cells were incubated with 100 μL PE-conjugated anti human Fc (Abcam, Ab98596, 1:500 dilution) for 30 mins at 4° C. After wash with PBS, cells were resuspended in FACS buffer and analyzed by flow cytometer (Beckman, CytoFLEX).

[9] = biological target: T2, EGFR on EGFR and cMET co-expressed …; experiment: as above
Experimental: as §1

[10] = biological target: T1, cMET on EGFR and cMET co-expressed …; experiment: flow cytometry on EBC-1 cells (co-express EGFR and cMET), PE anti-human Fc; signal of the whole bispecific, not resolved by arm
Experimental: as §1

[11] = biological target: T2, EGFR on EGFR and cMET co-expressed …; experiment: as above
Experimental: as §1

[12] = biological target: T1, cMET on EGFR and cMET co-expressed …; experiment: flow cytometry, EBC-1 cells (co-express EGFR and cMET; both arms contribute); remark: listed apart in the source
Experimental: EBC-1 was cultured with DMEM medium (Gibco, Cat #C11995500BT) containing 10% FBS. […] Each antibody was incubated with different cell lines (1×10⁵ cells/well) for 30 min in 0.2 mL FACS buffer (1×PBS with 0.1% BSA) at 4° C. After wash, cells were incubated with 100 μL PE-conjugated anti human Fc (Abcam, Ab98596, 1:500 dilution) for 30 min at 4° C. After wash with PBS, cells were resuspended in FACS buffer and analyzed by flow cytometer (Beckman, CytoFLEX).

T1 sequence (P08581 25-1390 limits assumed): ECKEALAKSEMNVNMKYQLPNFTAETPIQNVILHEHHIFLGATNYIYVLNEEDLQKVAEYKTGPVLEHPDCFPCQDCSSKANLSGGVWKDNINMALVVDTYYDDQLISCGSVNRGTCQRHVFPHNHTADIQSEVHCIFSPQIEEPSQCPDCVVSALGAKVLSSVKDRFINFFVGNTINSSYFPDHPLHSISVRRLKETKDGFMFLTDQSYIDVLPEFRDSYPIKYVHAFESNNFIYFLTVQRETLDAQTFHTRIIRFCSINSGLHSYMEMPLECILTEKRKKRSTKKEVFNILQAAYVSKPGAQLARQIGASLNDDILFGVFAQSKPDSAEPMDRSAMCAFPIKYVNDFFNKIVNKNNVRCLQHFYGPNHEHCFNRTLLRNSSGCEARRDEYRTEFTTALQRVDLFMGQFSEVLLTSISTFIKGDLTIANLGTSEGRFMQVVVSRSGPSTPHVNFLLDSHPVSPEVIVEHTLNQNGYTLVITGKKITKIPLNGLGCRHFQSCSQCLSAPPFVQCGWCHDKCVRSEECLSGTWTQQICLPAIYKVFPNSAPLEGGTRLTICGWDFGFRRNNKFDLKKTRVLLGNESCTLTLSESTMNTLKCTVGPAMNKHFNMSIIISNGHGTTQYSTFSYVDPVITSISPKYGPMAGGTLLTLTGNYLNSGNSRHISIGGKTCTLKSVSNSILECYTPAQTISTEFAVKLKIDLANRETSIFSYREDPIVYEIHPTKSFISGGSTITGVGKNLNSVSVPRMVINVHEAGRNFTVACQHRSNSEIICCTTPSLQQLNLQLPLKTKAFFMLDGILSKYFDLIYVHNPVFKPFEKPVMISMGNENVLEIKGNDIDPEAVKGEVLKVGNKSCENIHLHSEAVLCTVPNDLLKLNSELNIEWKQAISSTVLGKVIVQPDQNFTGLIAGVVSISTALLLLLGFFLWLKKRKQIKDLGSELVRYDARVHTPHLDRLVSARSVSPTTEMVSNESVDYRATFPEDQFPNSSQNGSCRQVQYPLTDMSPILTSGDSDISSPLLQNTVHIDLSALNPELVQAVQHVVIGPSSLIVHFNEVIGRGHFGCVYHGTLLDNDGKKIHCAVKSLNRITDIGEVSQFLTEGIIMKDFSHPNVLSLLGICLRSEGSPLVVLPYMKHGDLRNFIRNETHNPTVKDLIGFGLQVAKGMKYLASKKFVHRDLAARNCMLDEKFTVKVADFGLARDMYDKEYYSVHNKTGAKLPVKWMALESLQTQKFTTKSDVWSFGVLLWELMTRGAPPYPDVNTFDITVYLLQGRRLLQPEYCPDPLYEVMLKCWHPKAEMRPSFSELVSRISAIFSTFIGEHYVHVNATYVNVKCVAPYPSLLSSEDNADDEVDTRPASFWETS

B1: Nova-5097 (antibody, V domains shown)
VH: QVQLVQSGAEVKKPGSSVKVSCKASGGTFSSYAISWVRQAPGQGLEWMGGIDPFGTANYAQKFQGRVTITADESTSTAYMELSSLRSEDTAVYYCARVYQDVWGQGTLVTVSS
VL: DIVMTQSPDSLAVSLGERATINCRSSQSILYGINNNFLGWYQQKPGQPPKLLIYWASTRESGVPDRFSGSGSGTDFTLTISSLQAEDVAVYYCQQYAFGWTFGQGTKVEIK
notes: Parent cMET mAb
[1]
  binding result: binds

B2: Nova-5098 (antibody, V domains shown)
VH: B1 VH
VL: DIVMTQSPDSLAVSLGERATINCRSSQSILYGINNNFLGWYQQKPGQPPKLLIYWASTRESGVPDRFSGSGSGTDFTLTISSLQAEDVAVYYCLQYSDEPWTFGQGTKVEIK
notes: Parent cMET mAb
[1]
  binding result: binds

B3: Nova-5185 (antibody, V domains shown)
VH: B1 VH with F54I, G55M, T56G, A57T, N58E
VL: B2 VL with L94Q, S97A, D98Y, W101N
notes: Parent cMET mAb
[1]
  binding result: binds

B4: AZD9592 (bispecific antibody, human IgG1, kappa, lambda)
anti EGFR heavy chain: QVQLVQSGAEVKKPGSSVKVSCKASGGTFSDNDFSWVRQAPGQGLEWMGAIVAVFRTETYAQKFQDRVKITADISTRTTYMELSSLRSEDTAVYYCARRLMSAISGPGAPLLMWGQGTLVTVSSASTKGPSVCPLAPSSKSTSGGTAALGCLVKDYFPEPVTVSWNSGALTSGVHTFPAVLQSSGLYSLSSVVTVPSSSLGTQTYICNVNHKPSNTKVDKRVEPKSVDKTHTCPPCPAPEFEGGPSVFLFPPKPKDTLMISRTPEVTCVVVDVSHEDPEVKFNWYVDGVEVHNAKTKPREEQYNSTYRVVSVLTVLHQDWLNGKEYKCKVSNKALPASIEKTISKAKGQPREPQVYTLPPCREEMTKNQVSLWCLVKGFYPSDIAVEWESNGQPENNYKTTPPVLDSDGSFFLYSKLTVDKSRWQQGNVFSCSVMHEALHNHYTQKSLSLSPGK
anti EGFR light chain: QSALTQPRSVSGSPGQSVTISCTGTSSDVGGYNYVSWYQQHPGKAPKLMIYDVSKRPSGVPDRFSGSKSGNTASLTISGLQAEDEADYYCSSYTSSDTLEIFGGGTKLTVLGQPKAAPSVTLFPPCSEELQANKATLVCLISDFYPGAVTVAWKADSSPVKAGVETTTPSKQSNNKYAASSYLSLTPEQWKSHRSYSCQVTHEGSTVEKTVAPTEVS
anti cMET heavy chain: QVQLVQSGAEVKKPGASVKVSCKASGYTFTDYYIHWVRQATGQGLEWMGWMNPNSGNTGYAQKFQGRVTMTRDTSISTAYMELSSLRSEDTAVYYCARGQGYTHSWGQGTMVTVSSASTKGPSVFPLAPSSKSTSGGTAALGCLVKDYFPEPVTVSWNSGALTSGVHTFPAVLQSSGLYSLSSVVTVPSSSLGTQTYICNVNHKPSNTKVDKRVEPKSCDKTHTCPPCPAPEFEGGPSVFLFPPKPKDTLMISRTPEVTCVVVDVSHEDPEVKFNWYVDGVEVHNAKTKPREEQYNSTYRVVSVLTVLHQDWLNGKEYKCKVSNKALPASIEKTISKAKGQPREPQVCTLPPSREEMTKNQVSLSCAVKGFYPSDIAVEWESNGQPENNYKTTPPVLDSDGSFFLVSKLTVDKSRWQQGNVFSCSVMHEALHNHYTQKSLSLSPGK
anti cMET light chain: DIQMTQSPSTLSASVGDRVTITCRASEGIYHWLAWYQQKPGKAPKLLIYKASSLASGVPSRFSGSGSGTEFTLTISSLQPDDFATYYCQQYSNYPPTFGGGTKLEIKRTVAAPSVFIFPPSDEQLKSGTASVVCLLNNFYPREAKVQWKVDNALQSGNSQESVTEQDSKDSTYSLSSTLTLSKADYEKHKVYACEVTHQGLSSPVTKSFNRGEC
[2]
  EC50 (read off the curve): ~0.9 nM
[3]
  EC50 (read off the curve): ~0.9 nM
[4]
  EC50 (read off the curve): ~2 nM
[5]
  EC50 (read off the curve): ~2 nM

B5: ABF-46 (antibody, V domains shown)
VH: EVKLVESGGGLVQPGGSLRLSCATSGFTFTDYYMSWVRQPPGKALEWLGFIRNKANGYTTEYSASVKGRFTISRDNSQSILYLQMDTLRAEDSATYYCARDNWFAYWGQGTLVTVSA
VL: DILMTQSPSSLTVSAGEKVTMSCKSSQSLLASGNQNNYLAWHQQKPGRSPKMLIIWASTRVSGVPDRFIGSGSGTDFTLTINSVQAEDLAVYYCQQSYSAPLTFGAGTKLELK
[1]
  binding result: binds

B6: AZD9592-Ab (bispecific antibody, human IgG1, kappa, lambda)
anti-EGFR heavy chain: B4 anti EGFR heavy chain
anti-EGFR light chain: B4 anti EGFR light chain
anti-cMET heavy chain: B4 anti cMET heavy chain
anti-cMET light chain: B4 anti cMET light chain
notes: also called RAA22/B09-TM
[6]
  EC50 (read off the curve): ~9 nM
[7]
  EC50 (read off the curve): ~9 nM
[8]
  EC50 (read off the curve): ~4 nM
[9]
  EC50 (read off the curve): ~4 nM
[10]
  EC50 (read off the curve): ~2 nM
[11]
  EC50 (read off the curve): ~2 nM

B7: Bsab 12 (bispecific antibody, human IgG1, kappa, L234A L235A)
chain 1: not shown
chain 2: DIQMTQSPSSLSASVGDRVTITCKSSQSLLYTSSQKNYLAWYQQKPGKAPKLLIYWASTRESGVPSRFSGSGSGTDFTLTISSLQPEDFATYYCQQYYAYPWTFGQGTKVEIKRTVAAPSVFIFPPSDEQLKSGTASVVCLLNNFYPREAKVQWKVDNALQSGNSQESVTEQDSKDSTYSLSSTLTLSKADYEKHKVYACEVTHQGLSSPVTKSFNRGECGGGGSGGGGSGGGGSGGGGSGGGGSGGGGSGGGGSGGGGSEVQLVESGGGLVQPGGSLRLSCAASGYTFTSYWLHWVRQAPGKGLEWVGMIDPSNSDTRFNPNFKDRFTISADTSKNTAYLQMNSLRAEDTAVYYCATYRSYVTPLDYWGQGTLVTVSSASTKGPSVFPLAPSSKSTSGGTAALGCLVKDYFPEPVTVSWNSGALTSGVHTFPAVLQSSGLYSLSSVVTVPSSSLGTQTYICNVNHKPSNTKVDKKVEPKSCDKTHTCPPCPAPEAAGGPSVFLFPPKPKDTLMISRTPEVTCVVVDVSHEDPEVKFNWYVDGVEVHNAKTKPREEQYNSTYRVVSVLTVLHQDWLNGKEYKCKVSNKALPAPIEKTISKAKGQPREPQVYTLPPCREEMTKNQVSLSCAVKGFYPSDIAVEWESNGQPENNYKTTPPVLDSDGSFFLVSKLTVDKSRWQQGNVFSCSVMHEALHNHYTQKSLSLSPGK
notes: 1+1 scFab knob-in-hole format; also called Basb 12
[12]
  EC50 (read off the curve): ~2 nM
